For one substance, Kd results are on record in article PMC5870375.

Usually Kd stands for the concentration at which binding is half-saturated. Low readings indicate tighter binding, high ones weaker binding.

In this test the target is oligomeric amyloid-β 1–42 (UniProt P05067). Put plainly: ELISA; solid phase binding assay: 96-well plate coated with 100 nM oAβ1-42 in PBS overnight at 4 °C, blocked with 4% BSA; purified Fc or sTREM2-Fc proteins in PBST with 0.5% BSA, 30 min at 37 °C; detected with biotinylated anti-Fc antibody, avidin-HRP, TMB, read at 620 nm. In general terms: ELISA stands for enzyme-linked immunosorbent assay.

Turning to “soluble TREM2-Fc (human TREM2 extracellular domain, amino acids 1–171, fused to the Fc region of human IgG1) (from UniProt Q9NZC2 19-171) (Fc fusion)”, the Kd is 86.5 nM.
